The target of data set [1] is His-Nsp9 (SARS-CoV-2, UniProt P0DTD1 4141-4253). As to the kind of experiment: fluorescence polarization; 100 nM RNA; FP: 20 mM HEPES pH 7.0, 150 mM NaCl, 2 mM MgCl2, 10 mM DTT, 1 U/ul RiboLock, 5 min at room temperature; NMR: 20 mM HEPES pH 7.0, 15 mM NaCl, 0.5 mM TCEP, 0.02%. As to conditions: protein: recombinant; tags: His; chain copies: 2; label: 3' Cy3. Background: Fluorescence polarisation rises when a labelled molecule tumbles more slowly, as on binding a larger partner.

For data set [2], the target named is NCL (RNA-binding domain on protein array) (human, UniProt P19338 307-647). As to the kind of experiment: protein microarray; FP: 20 mM HEPES pH 7.0, 150 mM NaCl, 2 mM MgCl2, 10 mM DTT, 1 U/ul RiboLock, 5 min at room temperature; NMR: 20 mM HEPES pH 7.0, 15 mM NaCl, 0.5 mM TCEP, 0.02%. As to conditions: protein: recombinant; label: 5' biotin.
Sequence of NCL (RNA-binding domain on protein array) (P19338 307-647): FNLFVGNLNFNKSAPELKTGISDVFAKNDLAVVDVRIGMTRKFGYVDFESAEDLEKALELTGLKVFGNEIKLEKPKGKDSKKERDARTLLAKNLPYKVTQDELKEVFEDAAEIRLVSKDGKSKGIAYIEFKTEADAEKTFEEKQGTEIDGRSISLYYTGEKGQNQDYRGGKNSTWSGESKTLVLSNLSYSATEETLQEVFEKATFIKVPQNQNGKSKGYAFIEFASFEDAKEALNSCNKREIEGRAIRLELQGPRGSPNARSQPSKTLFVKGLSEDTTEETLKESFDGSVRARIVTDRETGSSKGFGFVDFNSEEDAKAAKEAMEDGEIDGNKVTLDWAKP
The target of data set [3] is AUF1 (RNA-binding domain on protein array) (human, UniProt Q14103 97-261). The data set is described as above. As to conditions: protein: recombinant; label: 5' biotin.
Sequence of AUF1 (RNA-binding domain on protein array) (Q14103 97-261): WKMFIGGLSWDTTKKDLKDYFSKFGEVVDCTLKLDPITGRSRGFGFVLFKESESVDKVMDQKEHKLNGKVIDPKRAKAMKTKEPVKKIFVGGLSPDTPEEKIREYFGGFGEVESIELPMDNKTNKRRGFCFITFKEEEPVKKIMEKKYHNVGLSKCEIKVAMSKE

In the case of CAGUGCAAUGAUGAAAGGGCAU (ssRNA, 5' phosphate) [miR-130b-Cy3], the Kd – broadly, the free concentration of one partner at which half of the binding sites on the other are occupied at equilibrium, for simple one-to-one binding – in data set [1] is around 63 nM. As to UGAGGUAGUAGGUUGUGUGGUU (ssRNA, 5' phosphate) [let-7b-Cy3], the equilibrium dissociation constant (Kd) in data set [1] is around 15 nM.

On to UAGCUUAUCAGACUGAUGUUGA (ssRNA, 5' phosphate) [miR-21-Cy3], for which the binding result in data set [1] is given as “no binding”. As to UGAGGUAGUAGGUUGCCAUUAU (ssRNA, 5' phosphate) [mutant let-7b-Cy3], the binding result in data set [1] was “no binding”. As to UGAGGUAGUAGGUUGUGUGGUU (ssRNA) [let-7b-biotin], the binding result in data set [2] and in data set [3] was “binds” in each case.
